The results in this text go back to the supplement of paper PMC10567573.

± gives the standard deviation.

A short description of this series: protein stability index of a GFP-peptide fusion (GPS, HEK-293T) (PSI 1-6); higher = more stable. To be noted: c terminus: a fixed tail appended.
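Note: 24-mer peptide tiles fused after GFP, lentivirally expressed, FACS-sorted into six equal bins by GFP/DsRed ratio, decoded by Illumina sequencing, PSI is the read-weighted mean bin number.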

In the case of PAEESKPAPSPHEEPCSPGLLQDQ [CBY2], the protein stability index reads like this: (treatment: DMSO) 5.33 ± 0.27; (treatment: MLN4924 1 uM, 8 h) 5.14 ± 0.31.

For PAGCMYIHGGVVNIHENKRTGSLF [KLHDC10], the protein stability index runs as follows: (treatment: DMSO) 2.52 ± 0.18; (treatment: MLN4924 1 uM, 8 h) 2.45 ± 0.26.

On to PAHLYFQAHGSEGLTFQGLLPLTE [PLEKHN1], for which the protein stability index stood at 2.85 ± 0.045 (treatment: DMSO) and 2.9 ± 0.083 (treatment: MLN4924 1 uM, 8 h).

For the sequence PALDWDSVHVPGPHAMTIQELVDY [PTPN9], the protein stability index is 4.08 ± 0.2 (treatment: DMSO) and 4.31 ± 0.15 (treatment: MLN4924 1 uM, 8 h).

Consider PAQVPREVLKVQTHLENPTRYHLQ [TFE3], for which the protein stability index stood at 3.75 ± 0.43 (treatment: DMSO) and 3.82 ± 0.093 (treatment: MLN4924 1 uM, 8 h).

Take PARDYSQYYRTIEELQNKILTATV [KRT17]: the protein stability index worked out at 2.28 ± 0.2 (treatment: DMSO) and 2.34 ± 0.21 (treatment: MLN4924 1 uM, 8 h).

For PCKTRDDEPVCGRPLGIRAGPNGT [APMAP], the protein stability index by setting is: (treatment: DMSO) 3.9 ± 0.36; (treatment: MLN4924 1 uM, 8 h) 4.14 ± 0.093.

As to PDDPEHLAARRQWRDECLMRLAKL [CRYL1], the protein stability index is 3.66 ± 0.6 (treatment: DMSO) and 3.83 ± 0.36 (treatment: MLN4924 1 uM, 8 h).

Regarding PEAISPDLVKKIRDFHRKILTLPE [TRIM15], the protein stability index runs as follows: (treatment: DMSO) 2.51 ± 0.17; (treatment: MLN4924 1 uM, 8 h) 2.68 ± 0.37.

PEEPLNGESYESCCPTSREAAVEA [FEM1A]: the protein stability index came out at 5.37 ± 0.18 (treatment: DMSO) and 5.28 ± 0.31 (treatment: MLN4924 1 uM, 8 h).

On to PEGLDSDFLAVLSDYPSPDISPPI [SLA], for which the protein stability index is, setting by setting: (treatment: DMSO) 4.08 ± 0.11; (treatment: MLN4924 1 uM, 8 h) 4.14 ± 0.097.

For PELMEHTEAESEQEGSSGMELSWG [TEX19], the protein stability index amounted to 5.4 ± 0.32 (treatment: DMSO) and 5.32 ± 0.35 (treatment: MLN4924 1 uM, 8 h).

As to PELSYRVCVGSDVTSIHKYMVRRY [MYORG], the protein stability index worked out at 2.31 ± 0.14 (treatment: DMSO) and 2.27 ± 0.24 (treatment: MLN4924 1 uM, 8 h).

Turning to PENQEYFEKHRWPPVWYLKEEDHY [RHOBTB2], the protein stability index reads like this: (treatment: DMSO) 3.42 ± 0.23; (treatment: MLN4924 1 uM, 8 h) 3.57 ± 0.41.

As for PETKQRKLSPLRLSVSNNQEPDFI [KMT2E], the protein stability index runs as follows: (treatment: DMSO) 4.16 ± 0.24; (treatment: MLN4924 1 uM, 8 h) 4.38 ± 0.32.

Turning to PFGILSPNVLCSMSGKSPVESSLN [FBXO34], the protein stability index reads like this: (treatment: DMSO) 2.88 ± 0.33; (treatment: MLN4924 1 uM, 8 h) 2.64 ± 0.37.

For the sequence PFIVTLEGNALQGPILQKDYVQLE [ZNF449], the protein stability index came out at 2.46 ± 0.18 (treatment: DMSO) and 2.59 ± 0.31 (treatment: MLN4924 1 uM, 8 h).

For PKKDLEDGEVPQHAGKKGKLSEHL [BRD3], the protein stability index worked out at 5.18 ± 0.26 (treatment: DMSO) and 5.3 ± 0.26 (treatment: MLN4924 1 uM, 8 h).

Consider PKKSAPSAVARSNSWMGSQGPMSQ [RBMY1A1], for which the protein stability index runs as follows: (treatment: DMSO) 4.08 ± 0.13; (treatment: MLN4924 1 uM, 8 h) 4.28 ± 0.2.

Take PKLFCPKNRSFDIDAIYSVIDDAK [PLD5]: the protein stability index runs as follows: (treatment: DMSO) 3 ± 0.62; (treatment: MLN4924 1 uM, 8 h) 2.89 ± 0.27.

With PKRRWLFWNSPSSPSSSAASSSSP [RHOBTB2], the protein stability index came out at 3.57 ± 0.2 (treatment: DMSO) and 3.75 ± 0.18 (treatment: MLN4924 1 uM, 8 h).

In the case of PLQNQKILKRTGQRYEHGRTLKSY [ZNF649], the protein stability index (treatment: DMSO) came out at 2.89 ± 0.45 and the protein stability index (treatment: MLN4924 1 uM, 8 h) was found to be 3.53 ± 0.41.

As to PLSLYGQLLWREFFYTAATNNPRF [CRY1], the protein stability index (treatment: DMSO) turned out to be 2.79 ± 0.46 and the protein stability index (treatment: MLN4924 1 uM, 8 h) worked out at 2.5 ± 0.72.

Consider PNLSPHAPWNYHYHCPGSPDHQVP [TRAF3IP2], for which the protein stability index reads like this: (treatment: DMSO) 3.29 ± 0.34; (treatment: MLN4924 1 uM, 8 h) 3.54 ± 0.32.

For PPPDVTQLTPPSHDLTDNIFPRLV [ANKRD17], the protein stability index runs as follows: (treatment: DMSO) 4.04 ± 0.34; (treatment: MLN4924 1 uM, 8 h) 4.06 ± 0.16.

On to PPSNFLEIDIFNPQTVGVGRARFT [SNX12], for which the protein stability index reads like this: (treatment: DMSO) 3.27 ± 0.34; (treatment: MLN4924 1 uM, 8 h) 3.27 ± 0.21.

Consider PQPNYADTLISQESCEKNDPLSLL [PCDHGA10], for which the protein stability index is, setting by setting: (treatment: DMSO) 4.83 ± 0.11; (treatment: MLN4924 1 uM, 8 h) 4.85 ± 0.17.

Regarding PQSPDFLDITNPKAVLENALRNFA [UFD1], the protein stability index is 2.86 ± 0.35 (treatment: DMSO) and 2.55 ± 0.57 (treatment: MLN4924 1 uM, 8 h).

Sequence PQYEFKEAAGSFTSSLAQPGAYYP [IRX6] had a protein stability index (treatment: DMSO) of 3.37 ± 0.19 and a protein stability index (treatment: MLN4924 1 uM, 8 h) of 3.36 ± 0.24.
